Results from the Immune Epitope Database (IEDB).

What was measured:
HLA-B*40:01 [1] = assay: IEDB peptide-MHC binding, purified MHC/competitive/fluorescence; filed as Kd, often an IC50 or EC50 that approximates it; ≥ and ≤ were set here for values at or beyond the usual limits of such assays
HLA-B*15:01 [2] = assay: as above; conditions: source organism: Escherichia coli O139:H28 str. E24377A
HLA-B*45:06 = assay: as above; conditions: source organism: Yersinia pestis Nepal516
HLA-B*83:01 = assay: as above; conditions: source organism: Yersinia pestis Nepal516
HLA-B*15:42 = assay: as above; conditions: source organism: Yersinia pestis Nepal516
HLA-B*58:01 [3] = assay: IEDB peptide-MHC binding, purified MHC/competitive/radioactivity; filed as Kd, often an IC50 or EC50 that approximates it; ≥ and ≤ were set here for values at or beyond the usual limits of such assays
HLA-B*57:01 [4] = assay: as above
HLA-A*68:02 [5] = assay: as above
HLA-A*01:01 [6] = assay: as above
HLA-B*53:01 = assay: as above; conditions: source organism: Dengue virus 4 Philippines/H241/1956
HLA-B*51:01 [7] = assay: IEDB peptide-MHC binding, purified MHC/direct/fluorescence; filed as Kd, often an IC50 or EC50 that approximates it; ≥ and ≤ were set here for values at or beyond the usual limits of such assays
HLA-B*07:02 = assay: as above
HLA-B*15:17 = assay: IEDB peptide-MHC binding, purified MHC/competitive/fluorescence; filed as Kd, often an IC50 or EC50 that approximates it; ≥ and ≤ were set here for values at or beyond the usual limits of such assays; conditions: source organism: Orthohantavirus andesense
HLA-B*27:03 = assay: as above; conditions: source organism: Orthohantavirus andesense
HLA-B*51:01 [8] = assay: as above; conditions: source organism: Orthohantavirus andesense
HLA-A*26:01 = assay: as above; conditions: source organism: Orthohantavirus andesense
HLA-B*39:01 = assay: as above; conditions: source organism: Orthohantavirus andesense
HLA-B*48:01 = assay: IEDB peptide-MHC binding, purified MHC/direct/fluorescence; filed as Kd, often an IC50 or EC50 that approximates it; ≥ and ≤ were set here for values at or beyond the usual limits of such assays; conditions: source organism: Orthohantavirus andesense
HLA-A*29:02 = assay: as above; conditions: source organism: Orthohantavirus andesense
HLA-A*11:01 = assay: as above; conditions: source organism: Orthohantavirus andesense
HLA-A*68:02 [9] = assay: as above; conditions: source organism: Orthohantavirus andesense
HLA-A*31:01 = assay: as above; conditions: source organism: Orthohantavirus andesense
HLA-B*15:01 [10] = assay: as above; conditions: source organism: Orthohantavirus andesense
HLA-B*58:01 [11] = assay: as above; conditions: source organism: Orthohantavirus andesense
HLA-A*69:01 = assay: as above; conditions: source organism: Orthohantavirus andesense
HLA-B*46:01 = assay: as above; conditions: source organism: Orthohantavirus andesense
HLA-B*40:01 [12] = assay: as above; conditions: source organism: Orthohantavirus andesense
HLA-A*02:01 = assay: as above; conditions: source organism: Orthohantavirus andesense
HLA-A*01:01 [13] = assay: as above; conditions: source organism: Orthohantavirus andesense
HLA-A*03:01 = assay: as above; conditions: source organism: Orthohantavirus andesense
HLA-B*18:01 = assay: as above; conditions: source organism: Orthohantavirus andesense
HLA-A*02:12 = assay: as above; conditions: source organism: Orthohantavirus andesense
HLA-B*57:01 [14] = assay: as above; conditions: source organism: Orthohantavirus andesense
HLA-B*08:01 = assay: as above; conditions: source organism: Orthohantavirus andesense
HLA-B*27:05 = assay: as above; conditions: source organism: Orthohantavirus andesense
[15] = source organism: Dengue virus 4 Philippines/H241/1956
[16] = source organism: Dengue virus 3 Martinique/1243/1999
[17] = source organism: Brucella abortus
[18] = source organism: Dengue virus 1 Brazil/97-11/1997

In the case of AEIEDLIFL, the Kd (HLA-B*40:01 [1]; source organism: Influenza A virus (A/swine/Italy/1509-6/97(H1N1))) is reported as 0.5 nM.
For AENHFLVGL, the Kd (HLA-B*15:01 [2]) was ≥ 20000 nM and the Kd (HLA-B*40:01 [1]; source organism: Escherichia coli O139:H28 str. E24377A) was 2.5 nM.
For AEYLYADGI, the Kd (HLA-B*45:06) was ≥ 5000 nM, the Kd (HLA-B*83:01) was ≥ 5000 nM and the Kd (HLA-B*40:01 [1]; source organism: Yersinia pestis Nepal516) was 4.3 nM. For the same sequence, the Kd (HLA-B*15:42) was ≥ 5000 nM.
For ASGKLVTQW, the Kd (HLA-B*58:01 [3]; [15]) was 15.7 nM and the Kd (HLA-B*57:01 [4]; [15]) was 137 nM.
ESSKNQTWQI was tested, and the Kd (HLA-A*68:02 [5]; [15]) was 701 nM, the Kd (HLA-B*58:01 [3]; [15]) was 1590 nM and the Kd (HLA-A*01:01 [6]; [15]) was ≥ 70400 nM. The Kd (HLA-B*57:01 [4]; [15]) was ≥ 23000 nM.
Sequence ESWEEVPYLG has a Kd (HLA-B*58:01 [3]; source organism: Dengue virus 2 Jamaica/1409/1983) of 589 nM.
GADTSEVHW showed a Kd (HLA-B*58:01 [3]; [15]) of 66.3 nM and a Kd (HLA-B*57:01 [4]; [15]) of 987 nM.
In the case of GTSLTQKVVI, the Kd (HLA-B*58:01 [3]; [16]) is reported as 194 nM and the Kd (HLA-B*57:01 [4]; [16]) is reported as 2300 nM.
IAVASGLLW gave a Kd (HLA-B*58:01 [3]; [15]) of 0.661 nM, a Kd (HLA-B*53:01) of 31.2 nM and a Kd (HLA-B*57:01 [4]; [15]) of 2.21 nM.
For LPAIIRPSF, the Kd (HLA-B*51:01 [7]; [17]) was ≥ 20000 nM and the Kd (HLA-B*07:02; [17]) was 104 nM.
In the case of LTGGVTLFF, the Kd (HLA-B*58:01 [3]; [18]) is reported as 107 nM and the Kd (HLA-A*01:01 [6]; [18]) is reported as 18900 nM.
MPSSYAAGM showed a Kd (HLA-B*51:01 [7]; source organism: Giardia lamblia ATCC 50803) of 863 nM.
Sequence QELSDAPFL has a Kd (HLA-B*40:01 [1]; source organism: Influenza A virus (A/Hokkaido/20/89(H3N2))) of 2 nM.
With QTQRSGVLW the Kd (HLA-B*58:01 [3]; [16]) was 1.47 nM and the Kd (HLA-B*57:01 [4]; [16]) was 18.7 nM.
SASSMINGVV was tested, and the Kd (HLA-A*68:02 [5]; [16]) was 165 nM, the Kd (HLA-B*58:01 [3]; [16]) was 6380 nM and the Kd (HLA-B*57:01 [4]; [16]) was 1990 nM.
In the case of SIKFKRKLM, the Kd (HLA-B*15:17) is reported as ≥ 20000 nM, the Kd (HLA-B*27:03) is reported as ≥ 20000 nM and the Kd (HLA-B*51:01 [8]) is reported as ≥ 20000 nM. The Kd (HLA-A*26:01) was ≥ 20000 nM, the Kd (HLA-B*39:01) was ≥ 20000 nM and the Kd (HLA-B*48:01) was ≥ 20000 nM. The Kd (HLA-A*29:02) was ≥ 20000 nM, the Kd (HLA-A*11:01) was ≥ 20000 nM and the Kd (HLA-A*68:02 [9]) was ≥ 20000 nM. For the same sequence, the Kd (HLA-A*31:01) was ≥ 20000 nM, the Kd (HLA-B*15:01 [10]) was ≥ 20000 nM and the Kd (HLA-B*58:01 [11]) was ≥ 20000 nM. For the same sequence, the Kd (HLA-A*69:01) was ≥ 20000 nM, the Kd (HLA-B*46:01) was ≥ 20000 nM and the Kd (HLA-B*40:01 [12]) was ≥ 20000 nM. The Kd (HLA-A*02:01) was ≥ 20000 nM, the Kd (HLA-A*01:01 [13]) was ≥ 20000 nM and the Kd (HLA-A*03:01) was ≥ 20000 nM. For the same sequence, the Kd (HLA-B*18:01) was ≥ 20000 nM, the Kd (HLA-A*02:12) was ≥ 20000 nM and the Kd (HLA-B*07:02; source organism: Orthohantavirus andesense) was ≥ 20000 nM. For the same sequence, the Kd (HLA-B*57:01 [14]) was ≥ 20000 nM, the Kd (HLA-B*08:01) was ≥ 5000 nM and the Kd (HLA-B*27:05) was ≥ 20000 nM.
In the case of TEAKIISLL, the Kd (HLA-B*40:01 [1]; source organism: Shigella flexneri 5 str. 8401) is reported as 8.1 nM.
For VASAAQRRGR, the Kd (HLA-B*58:01 [3]; [18]) was 160 nM.
